Reference: the supplement of paper PMC10567573

B1: TLE6 (parent)
chain: FWHDTLTEQLWRIFAGVHDEKAKP
B2: VTI1B (parent)
chain: NKLLLSIIILLELAILGGLVYYKF

Variants of: B1
Assay: protein stability index of a GFP-peptide fusion (GPS, HEK-293T) (PSI 1-6); higher = more stable
Details: c terminus: a fixed tail appended
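Also: lentivirally expressed fusions sorted by FACS into six bins by GFP to DsRed ratio, PSI derived from sequencing read proportions per bin multiplied by bin number.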

Protein stability index: each site, then its substitutions
H3: L 1.9; G 1.82; F 1.96; Y 1.91; D 2.16; K 1.82; T 2.75; C 1.95; A 3.32; V 1.65; S 1.72; Q 1.69; R 1.88; P 2.41; W 3.07; N 2.7; M 2.25; E 2.47; I 2.7
T5: P 2.73; K 2.78; W 1.46; F 2.25; H 2.23; V 2.62; M 1.96; Q 1.22; C 1.34; S 1.98; Y 2.35; L 1.97; A 1.25; D 2.13; R 1.53; I 2.26; E 1.91; N 2.23; G 1.46
L6: R 2.53; M 1.85; K 2.4; D 1.46; W 1.27; H 2.35; Q 2.31; T 1.81; G 1.77; A 2.67; F 1.58; P 1.63; N 2.31; S 2.66; E 1.91; V 1.75; Y 1.11; C 1.97; I 2.36
E8: M 1.1; R 1.85; H 2.52; A 1.66; V 2.95; Y 2.53; W 2.35; D 2.02; N 1.79; F 2.17; K 2.04; Q 2.64; L 2.23; P 1.76; T 1.74; C 1.62; I 1.66; G 1.69; S 1.64
W11: R 2.22; P 3.12; Q 2.21; G 2.46; A 2.37; C 1.99; I 1.79; H 2.52; M 1.76; L 1.85; E 2.85; F 1.59; S 2.18; N 2.19; K 2.52; D 2.82
D4: V 2.09; A 1.49; I 2.06; L 1.74; P 2.31; M 2.44; N 1.71; F 3.05; C 1.91; S 1.83; W 1.29; T 1.73; E 1.99; K 1.76; G 2.07; R 1.58; Y 3.37; Q 2.29; H 1.8
F1: R 2.48; E 1.81; D 2.17; N 2.12; G 2.32; V 1.8; P 2.18; C 2.42; I 1.95; A 2.28; W 1.82; Q 2.54; S 1.91; Y 2.05; M 2.12; T 2.01; K 2.44; L 1.93; H 1.96
L10: D 2.34; Y 1.75; V 2.11; F 1.68; N 1.92; H 2.54; C 1.94; M 1.88; T 1.74; E 2.41; P 1.61; G 2.24; I 2.09; K 2.59; W 2.42; A 2.17; S 2.61; Q 2.19; R 1.6
W2: E 2.41; M 1.42; D 2.61; P 2.16; S 1.62; V 3.26; H 3; F 1.9; T 2.35; A 2; Q 2.87; Y 1.85; K 2.11; G 1.69; L 2.54; N 2.1; C 1.66; I 2.26; R 2.46
T7: L 2.3; V 1.86; C 3.13; S 2.07; I 2.04; W 2; E 1.42; G 2.28; Q 2.46; F 2.03; D 2.01; A 1.92; M 2.19; N 1.36; Y 2.31; R 1.89; H 2.24; K 2.16; P 2.01
Q9: G 2.65; M 1.74; T 2.38; H 2.59; A 3.78; P 2.69; E 1.58; I 2.55; Y 1.65; L 1.79; W 2.79; S 2.04; V 4.83; F 1.97; R 2.48; N 2.45; C 3.67; D 1.97; K 1.51

Variants of: B2
Assay: as above
Details: c terminus: a fixed tail appended

Protein stability index: each site, then its substitutions
Y21: C 3.01; A 1.46; P 2.42; F 3.24; Q 3.37; S 1.66; V 2.17; G 3.61; D 3.33; K 2.65; R 2.32; T 2.79; N 2.3; I 2.42; E 2.28; W 2.62; L 3.39; M 2.58; H 2.32
K23: T 2.41; E 2.78; Y 2.52; A 2.52; S 2.05; W 2.23; I 2.95; V 3.21; F 2.1; Q 3.58; N 2.72; P 3.73; D 2.65; M 4.1; R 2.49; G 2.08; C 2.27; H 1.85
F24: L 2.53; W 1.83; V 2.5; S 2.46; E 3.85; C 2.01; G 2.52; T 3.12; Q 2.77; A 2.47; P 2.79; K 1.52; N 1.86; Y 1.63; R 3.27; H 2.07; D 3.03
G17: W 3.38; V 2.85; Y 2.5; T 3.94
L19: R 2.95; Q 3.21; Y 2.48; C 2.05; G 3.14; P 3.45; E 4.42; A 3.32; F 2.77; D 3.31; T 1.82; K 2.67; M 2.76; H 1.56; W 2.91; S 3.48; I 3.35; N 3.02
Y22: I 3.12; W 3.83; P 3.8; Q 3.06; E 1.54; T 2.95; H 3.4; V 3.2; R 2.92; L 3.17; F 2.59; M 3.54; N 2.47; D 2.55; C 2.53; A 3.55; G 3.7; K 1.71; S 1.56
G18: N 2.96; S 3.16; T 2.61; H 2.46; W 2.52; Q 2.61; L 2.61; D 2.01; I 3.09; V 2.56; P 2.88; E 2.07; A 2.61; R 2.65; F 1.55; C 3.99; Y 1.86
V20: L 3.59; T 3.34; K 3.48; C 1.34; F 2.98; I 2.23; W 2.84; A 2.12; S 2.32; M 3.01; N 2.81; P 2.94; Q 3.31; R 3.41; Y 2.87; D 3.38
